Measured values reported in FireProtDB (doi:10.1016/0301-4622(94)00157-f).

Settings: Hirudo medicinalis, Thermal, DSC, reversible: yes, whole UniProt chain shown

B1: Eglin C wild type, P01051 (protein)
chain: TEFGSELKSFPEVVGKTVDQAREYFTLHYPQYDVYFLPEGSPVTLDLRYNRVRVFYNPGTNVVNHVPHVG
pH 1.1, glycine-HCl 50mM
  Tm: 41.1 °C
  heat capacity change of unfolding: 0.86 kcal/mol/K
  unfolding enthalpy (calorimetric): 39 kcal/mol
pH 1.3, glycine-HCl 50mM
  Tm: 41.3 °C
  heat capacity change of unfolding: 0.97 kcal/mol/K
  unfolding enthalpy (calorimetric): 36.7 kcal/mol
pH 1.65, glycine-HCl 50mM
  Tm: 46.1 °C
  heat capacity change of unfolding: 0.21 kcal/mol/K
  unfolding enthalpy (calorimetric): 39.3 kcal/mol
pH 1.8, glycine-HCl 50mM
  Tm: 47.3 °C
  heat capacity change of unfolding: 0.11 kcal/mol/K
  unfolding enthalpy (calorimetric): 41.9 kcal/mol
pH 2, glycine 50mM
  Tm: 46.9 °C
  heat capacity change of unfolding: 0.58 kcal/mol/K
  unfolding enthalpy (calorimetric): 41.3 kcal/mol
pH 2.15, glycine 50mM
  Tm: 51.1 °C
  heat capacity change of unfolding: 0.51 kcal/mol/K
  unfolding enthalpy (calorimetric): 46.9 kcal/mol
pH 2.25, glycine 50mM
  Tm: 51.1 °C
  heat capacity change of unfolding: 0.51 kcal/mol/K
  unfolding enthalpy (calorimetric): 46.7 kcal/mol
pH 2.75, glycine 50mM
  Tm: 57.6 °C
  heat capacity change of unfolding: 0.35 kcal/mol/K
  unfolding enthalpy (calorimetric): 51 kcal/mol
pH 2.85, glycine 50mM
  Tm: 59.5 °C
  heat capacity change of unfolding: 1.02 kcal/mol/K
  unfolding enthalpy (calorimetric): 52.3 kcal/mol
pH 2.93, glycine 50mM
  Tm: 63.9 °C
  heat capacity change of unfolding: 0.44 kcal/mol/K
  unfolding enthalpy (calorimetric): 60.1 kcal/mol
pH 3, glycine 50mM
  Tm: 63.3 °C
  heat capacity change of unfolding: 0.84 kcal/mol/K
  unfolding enthalpy (calorimetric): 57.4 kcal/mol
pH 3.25, glycine 50mM
  Tm: 69 °C
  heat capacity change of unfolding: 0.22 kcal/mol/K
  unfolding enthalpy (calorimetric): 56.1 kcal/mol
pH 7, Sodium phosphate 50mM
  Tm: 85.8 °C
  heat capacity change of unfolding: 0.18 kcal/mol/K
  unfolding enthalpy (calorimetric): 74.8 kcal/mol
pH 7.01, Sodium phosphate 50mM
  Tm: 85.3 °C
  heat capacity change of unfolding: 0.17 kcal/mol/K
  unfolding enthalpy (calorimetric): 71.1 kcal/mol
pH 7.05, Sodium phosphate 50mM
  Tm: 85.5 °C
  heat capacity change of unfolding: 0.36 kcal/mol/K
  unfolding enthalpy (calorimetric): 65.5 kcal/mol
pH 8, Sodium phosphate 50mM
  Tm: 86.5 °C
  heat capacity change of unfolding: 0.51 kcal/mol/K
  unfolding enthalpy (calorimetric): 72.3 kcal/mol
pH 9.2, bicine 50mM
  Tm: 86.3 °C
  heat capacity change of unfolding: 0.7 kcal/mol/K
  unfolding enthalpy (calorimetric): 72.1 kcal/mol
pH 10.05, glycine 50mM
  Tm: 86.5 °C
  heat capacity change of unfolding: 0.53 kcal/mol/K
  unfolding enthalpy (calorimetric): 72.5 kcal/mol
pH 10.5, glycine 50mM
  Tm: 87 °C
  heat capacity change of unfolding: 0.05 kcal/mol/K
  unfolding enthalpy (calorimetric): 73.6 kcal/mol
pH 10.55, glycine 50mM
  Tm: 86 °C
  heat capacity change of unfolding: 0.8 kcal/mol/K
  unfolding enthalpy (calorimetric): 68.5 kcal/mol
